This passage reports stoichiometry N results from PMC7534572.

Experiment [1] has as its target PdxI (Aspergillus bombycis). Kind of experiment: crystal structure.
The target in experiment [2] is HpiI (Hymenoscyphus scutula). Kind of experiment: crystal structure.

As a reminder, the stoichiometry N is the number of molecules, sites or subunits per partner or assembly. Consider PdxI (enzyme), for which the stoichiometry N in experiment [1] is 2. Substance HpiI (enzyme) gave a stoichiometry N in experiment [2] of 2.
